# According to US20100306864A1 (OTSUKA CHEMICAL, published 2010):
# T1: CD20 (on Daudi cells) (human, UniProt P11836 1-297)
# T1 construct: whole, on cells; The target is the CD20 naturally present on Daudi cells; also called antigen
# T1 sequence (looked up): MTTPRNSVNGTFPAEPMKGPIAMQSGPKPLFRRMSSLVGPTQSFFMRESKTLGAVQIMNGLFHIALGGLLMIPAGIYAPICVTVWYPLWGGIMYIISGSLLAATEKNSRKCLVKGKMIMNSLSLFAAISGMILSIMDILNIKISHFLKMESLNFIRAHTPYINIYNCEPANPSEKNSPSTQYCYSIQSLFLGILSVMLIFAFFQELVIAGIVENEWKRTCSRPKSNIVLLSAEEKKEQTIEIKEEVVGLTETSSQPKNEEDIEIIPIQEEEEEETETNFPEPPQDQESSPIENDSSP
# B1: anti-CD20 chimera antibody (wild type) (antibody, human IgG1, kappa)
# heavy: not shown
# light: QIVLSQSPAILSASPGEKVTMTCRASSSVSYMHWYQQKPGSSPKPWIYAPSNLASGVPARFSGSGSGTSYSLTISRVEAEDAANYYCQQWSFNPPTFGAGTKLELKTVAAPSVFIFPPSDEQLKSGTASVVCLLNNFYPREAKVQWKVDNALQSGNSQESVTEQDSKDSTYSLSSTLTLSKADYEKHKVYACEVTHQGLSSPVTKSFNRGEC
# notes: Mouse anti-CD20 variable regions joined to human IgG1 H chain and human L chain constant regions; also called wild type antibody; wild type anti-CD20 chimera antibody; copies: 2 + 2
# B2: anti-CD20 chimera antibody H chain constant region amino acid mutant Tyr300Cys (antibody, human IgG1, kappa)
# heavy: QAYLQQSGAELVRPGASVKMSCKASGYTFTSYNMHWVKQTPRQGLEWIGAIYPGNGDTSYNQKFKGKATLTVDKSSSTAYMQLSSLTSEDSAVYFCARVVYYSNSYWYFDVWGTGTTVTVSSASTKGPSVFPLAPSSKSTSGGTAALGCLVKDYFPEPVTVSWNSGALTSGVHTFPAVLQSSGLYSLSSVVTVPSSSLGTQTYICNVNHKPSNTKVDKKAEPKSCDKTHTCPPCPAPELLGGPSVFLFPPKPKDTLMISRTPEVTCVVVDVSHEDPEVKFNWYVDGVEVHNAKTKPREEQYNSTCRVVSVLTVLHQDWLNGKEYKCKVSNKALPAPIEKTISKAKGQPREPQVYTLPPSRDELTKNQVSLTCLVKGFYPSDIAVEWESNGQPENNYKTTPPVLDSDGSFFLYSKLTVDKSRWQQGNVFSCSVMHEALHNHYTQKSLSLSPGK
# light: B1 light
# notes: H chain entry already carries Tyr300Cys (Kabat EU index); also called Tyr300Cys-modified antibody
# B3: anti-CD20 chimera antibody H chain constant region amino acid mutant Tyr296Cys (antibody, human IgG1, kappa)
# heavy: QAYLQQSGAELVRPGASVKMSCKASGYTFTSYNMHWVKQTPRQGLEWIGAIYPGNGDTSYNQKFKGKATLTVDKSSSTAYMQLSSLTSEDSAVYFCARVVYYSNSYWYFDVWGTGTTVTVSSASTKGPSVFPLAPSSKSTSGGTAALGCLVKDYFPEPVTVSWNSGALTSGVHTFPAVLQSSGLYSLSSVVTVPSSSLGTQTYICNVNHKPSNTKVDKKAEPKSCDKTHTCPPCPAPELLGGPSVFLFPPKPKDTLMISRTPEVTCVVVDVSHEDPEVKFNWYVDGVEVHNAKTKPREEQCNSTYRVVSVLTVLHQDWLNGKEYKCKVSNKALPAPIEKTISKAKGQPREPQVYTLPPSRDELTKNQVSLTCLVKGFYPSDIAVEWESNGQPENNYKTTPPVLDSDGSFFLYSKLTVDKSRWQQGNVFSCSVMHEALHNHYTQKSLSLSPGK
# light: B1 light
# notes: H chain entry already carries Tyr296Cys (Kabat EU index); also called Tyr296Cys mutant; Tyr296Cys-modified antibody; copies: 2 + 2
# B4: anti-CD20 chimera antibody H chain constant region amino acid mutant Ser298Cys (antibody, human IgG1, kappa)
# heavy: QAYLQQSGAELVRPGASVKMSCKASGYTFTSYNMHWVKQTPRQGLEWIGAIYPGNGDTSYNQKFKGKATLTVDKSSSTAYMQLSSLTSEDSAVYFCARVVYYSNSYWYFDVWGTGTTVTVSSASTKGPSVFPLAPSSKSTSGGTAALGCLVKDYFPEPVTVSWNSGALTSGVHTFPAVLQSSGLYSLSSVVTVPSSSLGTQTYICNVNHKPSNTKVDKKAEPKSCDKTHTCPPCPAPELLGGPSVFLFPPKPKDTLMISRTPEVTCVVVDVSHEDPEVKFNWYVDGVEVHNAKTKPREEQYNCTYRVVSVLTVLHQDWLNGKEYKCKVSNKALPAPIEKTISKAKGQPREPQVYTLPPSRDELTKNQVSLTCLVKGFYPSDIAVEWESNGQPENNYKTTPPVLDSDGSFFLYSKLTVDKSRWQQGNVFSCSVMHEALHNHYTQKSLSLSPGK
# light: B1 light
# notes: H chain entry already carries Ser298Cys (Kabat EU index); also called Ser298Cys mutant; Ser298Cys-modified antibody; copies: 2 + 2
# B5: anti-CD20 chimera antibody H chain constant region amino acid mutant Glu294Cys (antibody, human IgG1, kappa)
# heavy: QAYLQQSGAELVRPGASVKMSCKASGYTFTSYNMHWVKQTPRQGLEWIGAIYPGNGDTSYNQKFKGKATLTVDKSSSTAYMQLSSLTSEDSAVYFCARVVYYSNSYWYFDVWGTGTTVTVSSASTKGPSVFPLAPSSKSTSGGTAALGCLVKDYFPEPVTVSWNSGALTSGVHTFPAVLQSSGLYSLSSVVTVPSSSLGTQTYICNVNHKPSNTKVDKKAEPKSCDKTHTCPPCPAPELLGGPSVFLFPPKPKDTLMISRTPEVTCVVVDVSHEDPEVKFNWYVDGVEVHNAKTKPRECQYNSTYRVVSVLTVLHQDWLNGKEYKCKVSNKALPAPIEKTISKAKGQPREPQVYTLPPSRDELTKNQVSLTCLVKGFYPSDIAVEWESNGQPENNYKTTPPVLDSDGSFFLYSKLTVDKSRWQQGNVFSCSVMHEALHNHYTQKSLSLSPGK
# light: B1 light
# notes: H chain entry already carries Glu294Cys (Kabat EU index); also called Glu294Cys-modified antibody
# B6: anti-CD20 chimera antibody H chain constant region amino acid mutant Glu293Cys (antibody, human IgG1, kappa)
# heavy: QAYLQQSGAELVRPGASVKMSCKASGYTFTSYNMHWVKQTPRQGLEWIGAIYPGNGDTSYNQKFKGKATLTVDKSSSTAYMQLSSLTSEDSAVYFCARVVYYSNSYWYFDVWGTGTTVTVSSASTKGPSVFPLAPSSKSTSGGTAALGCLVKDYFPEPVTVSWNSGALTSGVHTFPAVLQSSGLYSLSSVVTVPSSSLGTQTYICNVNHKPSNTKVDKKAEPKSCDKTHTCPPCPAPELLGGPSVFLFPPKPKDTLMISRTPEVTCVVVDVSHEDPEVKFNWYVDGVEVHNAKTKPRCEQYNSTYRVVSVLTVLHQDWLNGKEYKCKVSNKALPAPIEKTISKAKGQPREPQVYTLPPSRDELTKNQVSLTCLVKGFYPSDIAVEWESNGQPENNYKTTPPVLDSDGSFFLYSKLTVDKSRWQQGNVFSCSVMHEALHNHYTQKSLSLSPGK
# light: B1 light
# notes: H chain entry already carries Glu293Cys (Kabat EU index); also called Glu293Cys-modified antibody
# Biological target: T1, CD20 (on Daudi cells)
# Experiment: cell ELISA on Daudi cells, HRP anti-human IgG, OD450
# Procedure: Daudi cells (ATCC catalog No. CCL-213) were dispensed into a 96 well plate at a density of 6×10⁴ cells/well, each of the antibody mutants (Glu293Cys, Glu294Cys, Tyr296Cys, Ser298Cys, or Tyr300Cys) obtained in Example 1 or wild type antibody was added thereto, and a reaction was carried out at 4° C. for 1 hour. Following this, washing was carried out with 3 mM EDTA-0.5% BSA-PBS(−) (washing buffer). Subsequently, 50 μL/well of an HRP-labeled anti-human IgG antibody (Zymed) diluted 500 times with the washing buffer was added, and a reaction was carried out at 4° C. for 1 hour. Cells after the reaction were washed with the washing buffer, 100 μL/well of TMB substrate (KPL) was added thereto so as to cause coloration, the reaction was stopped by adding 100 μL/well of 1 M HCl (Wako), and the OD value at 450 nm was measured using a plate reader (VersaMax, Molecular Devices).
row,binding result,Binder
1,binds,B1
2,binds,B2
3,binds,B3
4,binds,B4
5,binds,B5
6,binds,B6

# Biological target: T2, CD16 (NK cell Fcy receptor III), expressed on CHO-K1 cells (human, UniProt P08637 17-254)
# T2 construct: whole, on cells; also called CD16-expressing CHO-K1 cells
# T2 sequence (P08637 17-254): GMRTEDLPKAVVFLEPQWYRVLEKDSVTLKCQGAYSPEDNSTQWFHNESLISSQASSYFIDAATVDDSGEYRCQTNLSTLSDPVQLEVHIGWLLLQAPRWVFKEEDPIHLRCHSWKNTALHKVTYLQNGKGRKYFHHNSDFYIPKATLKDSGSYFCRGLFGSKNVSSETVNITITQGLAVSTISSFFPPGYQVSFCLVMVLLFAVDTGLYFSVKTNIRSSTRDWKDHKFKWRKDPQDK
# Experiment: flow cytometry on CD16-expressing CHO-K1 cells; biotin anti-human IgG kappa L chain antibody and PE-streptavidin
# Procedure: CD16-expressing CHO-K1 cells were taken at 6×10⁴ cells/tube, each of the antibody mutants obtained in Example (Tyr296Cys or Ser298Cys) or wild type antibody was added thereto to give a total amount of 50 μL/tube, and a reaction was carried out at 4° C. for 1 hour. Following this, washing was carried out with 3 mM EDTA-0.5% BSA-PBS(−) (washing buffer). Subsequently, a biotin-labeled mouse anti-human IgGκ L chain antibody (Vector Lab) diluted 200 times with the washing buffer was added at 100 μL/tube. After a reaction was carried out at 4° C. for 30 min, washing was carried out with 3 mM EDTA-0.5% BSA-PBS(−), PE-labeled streptavidin (BD-Pharmingen) diluted 400 times with the washing buffer was added at 100 μL/tube, and a reaction was carried out at 4° C. for 30 min. After the reaction was completed, washing was carried out twice with 3 mM EDTA-0.5% BSA-PBS(−), and a CD16-binding anti-CD20 antibody was analyzed using a flow cytometer (FACS Caliber, BecktonDickinson).
row,CD16 binding activity relative to wild type (concentrations that gave the same effect),Binder
1,~5 times that of the wild type,B3
2,~10 times that of the wild type,B4
